Results taken from patent US6355481B1, “Hybridoma cell line and monoclonal antibody for huntingtin protein” (Emory University, priority 1999, dated 2002).

Columns and labels:
[1] = system: parental PC12 cells; assay: Neurite outgrowth assay, parental PC12 cells; assay type: cell-based, rat; details: control/parental PC12 cells; IL-6 20 ng/ml, CNTF 20 ng/ml, EGF 10 ng/ml, bFGF 20 ng/ml
Experimental: To evaluate neurite outgrowth, we plated the cells at low density (2×10^4 Cells/cm^2) onto six-well plates. Cell cultures were treated with NGF (100 ng/ml) for 48 hr or with staurosporine (50-100 nM) and EGF (10 ng/ml) for 16 hr and were fixed with 4% paraformaldehyde in PBS for 15 min. After several washes with PBS, cells with neurites exceeding the cell diameter were counted using an inverted microscope (Olympus Optical CK2, Tokyo, Japan). At the same time, five to seven images (10×) were captured by a Pixera camera, and the percentage of cells with neurites was confirmed by analyzing these images. On average, 500-800 cells were counted for each group.

[2] = system: PC12 cells; assay: Transfection of PC12 cells, immunofluorescence: neurites and perinuclear inclusions; assay type: cell-based, rat; details: for transfected cells with neurites: neurites exceeding two body diameters, vector alone 4.7%
Experimental: cDNA constructs and transfection of cells. Cloned HAP1-A and HAP1-B cDNAs were inserted into the expression vector pCIS (Li et al., 1995) carrying the cytomegalovirus promoter. The expression constructs encoding N-terminal human huntingtin (253 amino acids) with 23, 73, or 120 glutamines were obtained in a previous study (Li and Li, 1998). PC12 cells were plated onto two-well chamber slides at a density of 50,000/cm^2 and cultured for 24 h. Two micrograms of plasmid DNA was then added to each well in a 1-ml solution containing Lipofectamine (10 μg/ml), yielding 3-8% transfected cells. Following 18-24 h transfection, the media were replaced with fresh growth media and the cells were grown for another 24 h before immunofluorescent staining. The immunostaining images were captured using a 3CCD camera video system. Neurite length was measured as cell body diameters. The average sizes (μm) of perinuclcar huntingtin inclusions were obtained by measuring the diameters of inclusions in 58-112 cells transfected with huntingtin alone. The percentage of transfected cells with neurites that exceeded two body diameters was obtained by counting 200-300 transfected cells in three independent experiments. For double transfection, equal amounts (2 μg for each) of HAP1-A and huntingtin cDNAs were transfected into PC12 cells in each well of six-well dishes. The transfected cells were immunostained with the rabbit polyclonal antibody for HAP1-A and mouse monoclonal antibody for huntingtin.

Row | Molecule | neurite outgrowth promoted by growth factor [1] | length of the neurites ([2]; single transfection) [body diameters] | transfected cells with neurites ([2]; single transfection) [%] | cells with elongated neurites ([2]; double transfection with HAP1-A, HAP1-A alone 29.4%) [%]
1 | CNTF: ciliary neurotrophic factor (protein, UniProt P26441 1-200, looked up) Ciliary neurotrophic factor: MAFTEHSPLTPHRRDLCSRSIWLARKIRSDLTALTESYVKHQGLNKNINLDSADGMPVASTDQWSELTEAERLQENLQAYRTFHVLLARLLEDQQVHFTPTEGDFHQAIHTLLLQVAAFAYQIEELMILLEYKIPRNEADGMPINVGDGGLFEKKLWGLKVLQELSQWTVRSIHDLRFISSHQTGIPARGSHYIANNKKM | did not promote neurite outgrowth | – | – | –
2 | HAP1-A: huntingtin-associated protein isoform expressed from cloned cDNA in pCIS vector transfected into PC12 cells (protein) MRPKDQVQSSAGDGTGSGDPATGTPTTQPAADPAPEPSAEPKPAPAQGTGSGQKSGSRTKTGGSFCRSRIRGDSDAPWTRYIFQGPYGPRATGLGTGRAEGIWKTPAAYIGRRPGVSGPERAAFIRELQEALCPNPLPRKKITEDDIKVMLYLLEEKERDLNTAARIGQSLVKQNSVLMEENNKLETMLGSAREEILHLRKQVNLRDDLLQLYSDSDDDEEDEEDEEEEEGEEEEREGQRDQDQQHDHPYGAPKPPPKAETLHHCPQLEALKQKLKLLEEENDHLREEASHLDNLEDKEQMLILECVEQFSEASQQMAELSEVLVLRLEGYERQQKEITQLQAEITKLQQRCQSYGAQTEKLQQQLASEKGVHPESLRAGSHMQDYGSRPRERQEDGKSHRQRSSMPAGSVTHYGYSVPLDALPSFPETLAEELRTSLRKFITDPAYFMERCDTRCREERKKEQGTMPPPPVQDLKPPEDFEAPEELVPEEELGAIEEVGTAEDGPAEETEQASEETEAWEEVEPEVDEATRMNVVVSALEASGLGPSHLDMKYVLQQLSNWQDAHSKRQQKQKVVPKGECSRRGHPPASGTSYRSSTL | – | 3.8 | 29.4 | –
3 | HD-23Q: N-terminal region of human huntingtin (amino acids 1-253) with 23 glutamines, expression construct (protein) MATLEKLMKAFESLKSFQQQQQQQQQQQQQQQQQQQQQPPPPPPPPPPPQLPQPPPQAQPLLPQPQPPPPPPPPPPGPAVAEEPLHRPKKELSATKKDRVNHCLTICENIVAQSVRNSPEFQKLLGIAMELFLLCSDDAESDVRMVADECLNKVIKALMDSNLPRLQLELYKEIKKNGAPRSLRAALWRFAELAHLVRPQKCRPYLVNLLPCLTRTSKRPEESVQETLAAAVPKIMASFGNFANDNEIKVLLK | – | – | 5.1 | 24.6
